Laboratory results published in patent publication US20250263461A1.
Blank lines part the entries; values can stand above or below the substance they belong to.

Columns and labels:
[1] = molecular target: NY-ESO-1 and/or LAGE-1a peptide on HLA-A*02:01 (human); experiment: value quoted for comparison with 1G4LY; no measurement of 1G4 is described in this filing
[2] = molecular target: NY-ESO-1 and/or LAGE-1a peptide on HLA-A*02:01 (human); experiment: surface plasmon resonance; biotinylated pMHC on streptavidin chip, soluble TCR 0 to 250 nM as analyte; 1:1 binding model; soluble, other
[3] = molecular target: NY-ESO-1 and/or LAGE-1a peptide on HLA-A*02:01 (human); experiment: surface plasmon resonance; biotinylated pMHC on streptavidin chip, soluble TCR as analyte; 1:1 binding model; soluble, other
[4] = molecular target: pMHC1 complex: Biotin-HLA-A*02:01-… (SEQ ID NO: 1); experiment: SPR, pMHC on streptavidin chip, soluble TCR as analyte, 1:1 binding model

Kd [1]: 32000 nM
Substance: 1G4 TCR

Kd [2]: 761 nM
koff [3]: 0.0303 s⁻¹
kon [3]: 39800 M⁻¹ s⁻¹
Substance: 1G4LY TCR

Kd [4]: 761 nM
koff [4]: 0.0303 s⁻¹
kon [4]: 39800 M⁻¹ s⁻¹
Substance: soluble 1G4LY TCR
